The values that follow come from patent publication US20200079855A1 (Pfizer, published 2020).

Assay [1] has as its target T1, human αvβ8 integrin on U251 cells (human, UniProt P06756 31-1048).
Assay [2] concerns the target T1, human αvβ8 integrin on U251 cells. Description: cell-based or functional assay.
The target is the same in assay [3]. Description: flow cytometry on U251 cells.
The target of assay [4] is T2, mouse αvβ8 integrin on C8-S cells (mouse, UniProt P43406 31-1044; Q0VBD0 22-767).
T2 construct: Endogenous αvβ8 of C8-S mouse astrocyte cells; also called C8-S (mouse astrocyte); C8-S (mouse avb8)
T2 sequence (P43406 31-1044 limits assumed, chain 1 of 2): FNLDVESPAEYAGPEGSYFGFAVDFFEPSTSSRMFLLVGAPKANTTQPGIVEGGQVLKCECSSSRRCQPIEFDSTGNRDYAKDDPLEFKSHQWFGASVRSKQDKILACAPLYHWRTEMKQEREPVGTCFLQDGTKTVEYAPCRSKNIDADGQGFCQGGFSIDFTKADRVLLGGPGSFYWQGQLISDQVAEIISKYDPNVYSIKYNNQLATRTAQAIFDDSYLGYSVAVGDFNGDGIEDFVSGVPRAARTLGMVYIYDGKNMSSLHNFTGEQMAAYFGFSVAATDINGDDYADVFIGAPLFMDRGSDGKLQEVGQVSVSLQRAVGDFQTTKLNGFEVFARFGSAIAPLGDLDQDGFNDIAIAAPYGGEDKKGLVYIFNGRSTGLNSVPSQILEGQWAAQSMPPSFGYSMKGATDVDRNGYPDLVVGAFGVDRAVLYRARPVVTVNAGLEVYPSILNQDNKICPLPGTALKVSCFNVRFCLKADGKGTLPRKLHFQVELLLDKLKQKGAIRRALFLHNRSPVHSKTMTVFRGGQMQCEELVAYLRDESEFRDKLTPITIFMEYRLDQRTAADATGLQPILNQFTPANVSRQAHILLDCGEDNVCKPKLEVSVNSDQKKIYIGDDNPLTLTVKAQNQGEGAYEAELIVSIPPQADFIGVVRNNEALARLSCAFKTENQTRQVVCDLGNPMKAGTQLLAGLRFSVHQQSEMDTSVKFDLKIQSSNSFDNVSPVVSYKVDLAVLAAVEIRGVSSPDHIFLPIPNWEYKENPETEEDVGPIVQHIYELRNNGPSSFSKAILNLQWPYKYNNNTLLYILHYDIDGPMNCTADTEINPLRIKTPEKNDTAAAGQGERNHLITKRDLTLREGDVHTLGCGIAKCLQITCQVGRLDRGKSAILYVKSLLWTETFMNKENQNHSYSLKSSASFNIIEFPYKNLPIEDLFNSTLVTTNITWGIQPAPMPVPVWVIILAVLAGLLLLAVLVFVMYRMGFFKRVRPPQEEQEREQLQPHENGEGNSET
T2 sequence (Q0VBD0 22-767 limits assumed, chain 2 of 2): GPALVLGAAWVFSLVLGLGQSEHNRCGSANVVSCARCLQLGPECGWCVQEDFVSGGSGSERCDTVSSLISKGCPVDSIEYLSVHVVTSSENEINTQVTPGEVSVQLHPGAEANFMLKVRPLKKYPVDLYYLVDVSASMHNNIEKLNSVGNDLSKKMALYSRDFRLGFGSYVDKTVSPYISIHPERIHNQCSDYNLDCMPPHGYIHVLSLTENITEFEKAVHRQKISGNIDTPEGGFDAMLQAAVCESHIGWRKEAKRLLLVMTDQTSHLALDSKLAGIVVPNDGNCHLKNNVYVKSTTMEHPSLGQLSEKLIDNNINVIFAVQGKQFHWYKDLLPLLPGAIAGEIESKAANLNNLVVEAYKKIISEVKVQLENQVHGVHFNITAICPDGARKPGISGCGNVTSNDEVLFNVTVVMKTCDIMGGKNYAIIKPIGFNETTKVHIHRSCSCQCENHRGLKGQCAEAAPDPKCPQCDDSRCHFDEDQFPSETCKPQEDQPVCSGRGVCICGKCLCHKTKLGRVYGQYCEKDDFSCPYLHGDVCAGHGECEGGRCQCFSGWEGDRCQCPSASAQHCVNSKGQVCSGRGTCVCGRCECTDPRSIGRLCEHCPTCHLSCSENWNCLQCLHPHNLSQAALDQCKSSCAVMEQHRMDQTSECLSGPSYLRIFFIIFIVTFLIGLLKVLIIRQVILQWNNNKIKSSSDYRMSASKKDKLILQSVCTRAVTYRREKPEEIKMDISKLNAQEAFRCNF
Description: flow cytometry on C8-S cells. As to the method:
(§1) 100,000 cells were incubated with a dilution series of the anti-αvβ8 or human IgG1_3 mut Isotype antibody for three to four hours on ice. The cells were spun down for five minutes at 300 g force. The cells were then washed three times with wash buffer (PBS+0.2% BSA) to remove excess unbound antibodies. After thorough washing, cells were incubated with Fab′2 anti-human Fc-PE (Invitrogen) or goat Fab′2 anti-mouse-APC (Jackson Labs) at 1:1000 dilution along with LIVE/DEAD fixable cell stain (Invitrogen) at 1:2000 to distinguish live cells. The whole content was incubated for 30 minutes on ice. After washing, the stained cells were analyzed on BD biosciences Fortessa flow cytometer (gated for live cells) using FlowJo analysis software. The mean fluorescence intensities (MFI) at different antibody concentrations were plotted for various antibodies.
(§2) The apparent-affinity of ADWA11 2.4 for U251 (human glioblastoma) or C8-S (mouse astrocyte) cells was also evaluated in a cell-binding assay, according to the methods as generally described herein. Briefly, cells were incubated with a serial dilution of ADWA11 2.4 for 4 hours on ice, followed by detection on bound antibody with an anti-human-PE secondary antibody, and analyzed by flow cytometry.

The target in assay [5] is T2, mouse αvβ8 integrin on C8-S cells. Kind of assay: cell-based or functional assay.
Assay [6] has as its target T3, recombinant human αvβ3 integrin (human, UniProt P06756 31-992; P05106 27-718).
T3 construct: Used in ELISA and immobilised on the Biacore chip; construct not described; also called hαvβ3; AVB3
Description: SPR (Biacore), recombinant integrin immobilised. As for the experimental part: (§3) To evaluate the specificity of ADWA11 2.4, recombinant human αvβ6 and αvβ3 were immobilized on a Biacore chip and binding of the parental murine and humanized mAb variant of ADWA11 2.4 was determined.

The target of assay [7] is T4, recombinant human αvβ6 integrin (human, UniProt P06756 31-992; P18564 22-707).
T4 construct: Used in ELISA and immobilised on the Biacore chip; construct not described; also called hαvβ6; AVB6
Description: SPR (Biacore), recombinant integrin immobilised. As to the method: as §3

The target in assay [8] is T1, human αvβ8 integrin on U251 cells. Kind of assay: flow cytometry on live U251 cells, 4 hours on ice, anti-human-PE secondary, n=3.
The target in assay [9] is T5, human αvβ8 integrin on HEK293-F cells (human, UniProt P06756 31-1048; P26012 43-769).
T5 construct: whole, on cells; HEK293-F cells transiently expressing the full length beta subunit; also called HEK cells expressing αvβ8
T5 sequence (P06756 31-1048, chain 1 of 2): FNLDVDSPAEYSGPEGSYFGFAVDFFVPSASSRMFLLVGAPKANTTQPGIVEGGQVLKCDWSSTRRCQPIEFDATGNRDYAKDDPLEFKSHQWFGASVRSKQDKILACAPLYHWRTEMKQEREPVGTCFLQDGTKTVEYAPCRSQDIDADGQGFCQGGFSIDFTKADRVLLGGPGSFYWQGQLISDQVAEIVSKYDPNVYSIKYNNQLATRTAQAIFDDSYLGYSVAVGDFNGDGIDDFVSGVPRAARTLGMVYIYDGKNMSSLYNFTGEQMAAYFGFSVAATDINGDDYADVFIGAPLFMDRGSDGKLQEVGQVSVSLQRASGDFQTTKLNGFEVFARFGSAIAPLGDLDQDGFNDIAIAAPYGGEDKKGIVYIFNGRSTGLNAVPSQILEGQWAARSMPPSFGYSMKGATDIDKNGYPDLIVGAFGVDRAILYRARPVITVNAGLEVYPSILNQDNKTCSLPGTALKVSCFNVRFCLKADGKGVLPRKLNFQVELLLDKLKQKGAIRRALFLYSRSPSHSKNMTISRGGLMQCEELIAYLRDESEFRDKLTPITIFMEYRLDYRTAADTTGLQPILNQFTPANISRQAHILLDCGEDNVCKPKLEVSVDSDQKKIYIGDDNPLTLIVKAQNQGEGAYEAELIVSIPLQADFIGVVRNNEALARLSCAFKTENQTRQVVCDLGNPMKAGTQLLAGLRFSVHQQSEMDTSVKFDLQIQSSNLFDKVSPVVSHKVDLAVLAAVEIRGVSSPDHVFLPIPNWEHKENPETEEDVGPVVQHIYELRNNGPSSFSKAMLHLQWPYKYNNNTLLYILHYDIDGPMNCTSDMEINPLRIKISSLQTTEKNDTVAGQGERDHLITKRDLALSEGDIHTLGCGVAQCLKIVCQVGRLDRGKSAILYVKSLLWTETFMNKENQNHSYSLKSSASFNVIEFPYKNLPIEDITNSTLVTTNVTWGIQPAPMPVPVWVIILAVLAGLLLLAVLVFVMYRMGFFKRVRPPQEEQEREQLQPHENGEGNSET
T5 sequence (P26012 43-769, chain 2 of 2): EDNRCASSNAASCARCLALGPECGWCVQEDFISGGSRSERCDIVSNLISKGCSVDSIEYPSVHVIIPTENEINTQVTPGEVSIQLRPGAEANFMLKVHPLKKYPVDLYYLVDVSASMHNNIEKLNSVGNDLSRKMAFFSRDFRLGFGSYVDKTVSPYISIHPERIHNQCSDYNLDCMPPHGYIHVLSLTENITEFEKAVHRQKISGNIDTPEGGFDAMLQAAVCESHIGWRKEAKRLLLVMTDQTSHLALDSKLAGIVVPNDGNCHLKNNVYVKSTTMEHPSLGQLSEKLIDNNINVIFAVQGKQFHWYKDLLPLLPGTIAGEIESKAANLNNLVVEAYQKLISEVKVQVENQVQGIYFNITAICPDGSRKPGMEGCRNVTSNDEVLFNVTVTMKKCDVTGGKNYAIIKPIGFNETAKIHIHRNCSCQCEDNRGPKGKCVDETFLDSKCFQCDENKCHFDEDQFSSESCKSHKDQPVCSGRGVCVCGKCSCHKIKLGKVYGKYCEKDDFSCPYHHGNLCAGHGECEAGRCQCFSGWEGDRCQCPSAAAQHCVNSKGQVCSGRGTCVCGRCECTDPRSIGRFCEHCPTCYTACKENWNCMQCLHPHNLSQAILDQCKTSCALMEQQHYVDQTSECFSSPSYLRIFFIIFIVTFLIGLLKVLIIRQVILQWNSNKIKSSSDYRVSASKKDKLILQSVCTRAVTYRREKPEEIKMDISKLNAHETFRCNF
Kind of assay: flow cytometry, titration on HEK cells overexpressing human integrin β8, right panel. As for the experimental part: (§4) For cell-binding experiments with HEK293-F cells overexpressing human αvβ3, αvβ5, αvβ6, αvβ8. HEK293-F cells transiently expressing full length human integrin beta 3 (Accession No. NP_000203.2), human integrin beta 5 (Accession No. NP_002204.2), human integrin beta 6 (Accession No. NP_000879.2), or human integrin beta 8 (Accession No. NP_002205.1) were prepared using proprietary vectors and vendor provided protocols. Cells were harvested after 4 days and analyzed for integrin expression. To characterize Integrin αvβ3, αvβ5, αvβ6, αvβ8 expression 100,000 cells were incubated in the indicated commercially available or directly conjugated proprietary antibodies for 30 minutes, along with LIVE/DEAD fixable cell stain (Invitrogen) at 1:2000 to distinguish live cells. Cells were spun down for five minutes at 300 g force. The cells were then washed twice with wash buffer (PBS+0.2% BSA) to remove excess unbound antibodies and ananalysed on BD biosciences Fortessa flow cytometer
(§5) 100,000 cells were incubated with a dilution series of the anti-αvβ8 or human IgG1_3 mut Isotype antibody for three to four hours on ice. […] After washing, the stained cells were analyzed on BD biosciences Fortessa flow cytometer (gated for live cells) using FlowJo analysis software. The mean fluorescence intensities (MFI) at different antibody concentrations were plotted for various antibodies.

Assay [10] concerns the target T6, human αvβ3 integrin on HEK293-F cells (human, UniProt P06756 31-1048; P05106 27-788).
T6 construct: whole, on cells; HEK293-F cells transiently expressing the full length beta subunit; also called HEK cells expressing αvβ3
Kind of assay: flow cytometry, titration of ADWA11 2.4 on HEK cells overexpressing human integrin β3 (gMFI minus secondary), right panel. As to the method:
as §4, §5

The target of assay [11] is T7, human αvβ5 integrin on HEK293-F cells (human, UniProt P06756 31-1048; P18084 24-799).
T7 construct: whole, on cells; HEK293-F cells transiently expressing the full length beta subunit; also called HEK cells expressing αvβ5
Kind of assay: flow cytometry, titration of ADWA11 2.4 on HEK cells overexpressing human integrin β5 (gMFI minus secondary), right panel. As to the method: as §4, §5

In assay [12] the target is T8, human αvβ6 integrin on HEK293-F cells (human, UniProt P06756 31-1048; P18564 22-788).
T8 construct: whole, on cells; HEK293-F cells transiently expressing the full length beta subunit; also called HEK cells expressing αvβ6
Kind of assay: flow cytometry, titration of ADWA11 2.4 on HEK cells overexpressing human integrin β6 (gMFI minus secondary), right panel. As for the experimental part:
as §4, §5

In assay [13] the target is T1, human αvβ8 integrin on U251 cells. Description: flow cytometry, IgG binding to U251 cells (MFI PE-A), left panel ADWA11_IgG_U251 cell binding; EC50 unit inferred, axis Log10 [mAb] nM.
Assay [14] deals with T2, mouse αvβ8 integrin on C8-S cells. Kind of assay: flow cytometry, IgG binding to C8-S cells (MFI PE-A), right panel ADWA11_IgG_C8-S cell binding; EC50 unit inferred, axis Log10 [mAb] nM. As to the method:
as §1, §2

T6 sequence (P06756 31-1048, chain 1 of 2): as the sequence (P06756 31-1048, chain 1 of 2) above
T6 sequence (P05106 27-788, chain 2 of 2): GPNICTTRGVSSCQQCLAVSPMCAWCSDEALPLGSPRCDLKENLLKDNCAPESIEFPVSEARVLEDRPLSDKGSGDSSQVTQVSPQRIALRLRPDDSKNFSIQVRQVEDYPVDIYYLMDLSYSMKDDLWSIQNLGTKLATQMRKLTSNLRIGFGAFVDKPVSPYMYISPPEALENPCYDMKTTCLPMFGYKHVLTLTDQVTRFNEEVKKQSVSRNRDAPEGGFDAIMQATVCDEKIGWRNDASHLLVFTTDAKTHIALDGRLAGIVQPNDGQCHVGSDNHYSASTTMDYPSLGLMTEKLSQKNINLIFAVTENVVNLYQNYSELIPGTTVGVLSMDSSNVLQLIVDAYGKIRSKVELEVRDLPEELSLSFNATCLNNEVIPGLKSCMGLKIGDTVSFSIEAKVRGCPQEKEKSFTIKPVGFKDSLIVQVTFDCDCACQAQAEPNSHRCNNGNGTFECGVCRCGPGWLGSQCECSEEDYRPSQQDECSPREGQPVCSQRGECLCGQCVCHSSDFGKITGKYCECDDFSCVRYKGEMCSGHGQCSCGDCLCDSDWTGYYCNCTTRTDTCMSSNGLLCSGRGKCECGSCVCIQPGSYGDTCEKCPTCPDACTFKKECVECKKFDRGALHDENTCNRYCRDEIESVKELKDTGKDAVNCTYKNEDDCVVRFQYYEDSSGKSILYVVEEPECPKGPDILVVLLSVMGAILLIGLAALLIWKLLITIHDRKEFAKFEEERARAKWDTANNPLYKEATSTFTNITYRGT

B1: ADWA11 2.4 (IgG) (antibody, V domains shown)
VH: EVQLVESGGGLVQPGGSLRLSCAASGFNIKDYYMNWVRQAPGKGLEWVGWIDPDQGNTIYEPKFQGRFTISADTSKNSAYLQMNSLRAEDTAVYYCARRLLMDYWGQGTLVTVSS
VL: DIQMTQSPSSLSASVGDRVTITCRSTKSLSHFNGNTYLFWYQQKPGKAPKRLIYYMSSLASGVPSRFSGSGSGTDFTLTISSLQPEDFATYYCQQSLEYPFTFGGGTKVEIKR
notes: Human IgG1 effectorless (L234A, L235A, G237A), kappa; also called ADWA11 VH05-2/VK01(2.4); ADWA11_VH05-2_VK01(2.4)
Consider B1, for which the IC50 (read off the curve) in [1] was 0.1 nM; in assay [5], roughly 0.2 nM. In assay [2], the IC50 in the TGFβ transactivation assay with U251 cells stood at 199 pM. The concentration giving a half-maximal response (EC50) in assay [3] amounted to 0.256 nM; in [4] it was 0.145 nM; in assay [8] it was 0.126 nM; in assay [13], 0.105 nM; in assay [14], 0.115 nM. For the same molecule, the binding result in assay [6] is recorded as “no binding”; in [7] it was “no binding”; in [10], “no binding (tested: 100 nM)”; in assay [11], “no binding (tested: 100 nM)”; in assay [12], “no binding (tested: 100 nM)”. Also, the “EC50 (read off the curve)” value in assay [9] was roughly 2 nM.
